Results reported in patent US20060153850A1.

Columns and labels:
[1] = biological target: human M-CSF (macrophage colony stimulating factor) (human) (UniProt P09603); assay: cell-based or functional assay
[2] = biological target: human M-CSF (macrophage colony stimulating factor) (human) (UniProt P09603); assay: c-fms receptor binding inhibition assay: antibody varied, 125I-M-CSF binding to c-fms-bearing cells

B1: monoclonal antibody 9.7.2 (antibody, human IgG4, kappa, V domains shown)
VH: QVQLVESGGGLVKPGGSLRLSCAASGFTFSDYYMSWIRQAPGKGLEWVSYISSSGSTIYYADSVKGRFTISRDNAKNSLYLQMNSLRAEDTAVYYCARRIGGMDVWGQGTTVTVSS
VL: DIQMTQSPSSLSASVGDRVTITCRASQSISGFLIWYQQRPGKAPKLLIYATSSLQSGVPLRFSGSESGTDFTLTISSLQPEDFATYYCQQSYSTPFTFGPGTKVDIKR
[1]
  Human Whole Blood Monocyte Activation Assay [IC50, M]: 1.98e-10 M
  M-CSF Mouse Monocytic Cell Proliferation Assay [IC50, M]: 7.37e-10 M
[2]
  IC50: 6 pM
